# Results as given in patent publication US20230174627A1 (published 2023).
# T1: recombinant EBOV GP (Ebola virus (EBOV), UniProt Q05320 33-650)
# T1 sequence: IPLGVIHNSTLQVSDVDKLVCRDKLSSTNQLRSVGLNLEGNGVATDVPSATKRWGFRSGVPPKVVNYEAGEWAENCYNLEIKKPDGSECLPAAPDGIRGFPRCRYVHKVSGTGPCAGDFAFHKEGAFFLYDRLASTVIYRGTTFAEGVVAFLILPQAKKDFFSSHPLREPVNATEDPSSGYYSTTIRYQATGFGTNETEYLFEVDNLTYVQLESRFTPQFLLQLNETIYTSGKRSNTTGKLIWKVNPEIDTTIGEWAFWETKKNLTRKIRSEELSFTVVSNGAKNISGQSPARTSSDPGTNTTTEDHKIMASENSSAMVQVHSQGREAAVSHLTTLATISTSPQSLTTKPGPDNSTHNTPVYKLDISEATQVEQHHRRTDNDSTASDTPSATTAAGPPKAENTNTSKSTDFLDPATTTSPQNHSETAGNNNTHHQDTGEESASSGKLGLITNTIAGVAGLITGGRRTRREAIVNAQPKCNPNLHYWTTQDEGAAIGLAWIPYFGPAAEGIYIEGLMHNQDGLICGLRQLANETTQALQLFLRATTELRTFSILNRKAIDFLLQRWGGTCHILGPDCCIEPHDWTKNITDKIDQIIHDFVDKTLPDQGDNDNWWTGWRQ
# B1: X10H2 human IgG1 chimeric mAb (antibody, V domains shown)
# VH: QVQLEQSGAEVKKPGTSVKVSCKASGFTFGSDAISWVRQAPGQGLEWMGVIIPVVGARTYAEKFQGRITITADTSTSTVFMDLSSIRSDDTAVYYCAREGARAATGHYKSMDIWGRGTLV
# VL: EIELTQSPSSLYASVGDKVTITCRASQGISTYLNWYQQKPGKAPKLLIYAASSLQSGVPSRFSGSGSGTEFTLTISSLQPEDFAAVYCQQYNSYPRTFGQGTKVEIK
# B2: 17F6 human IgG1 chimeric mAb (antibody, V domains shown)
# VH: DVQLQESGPGLVKPSQTVSLTCTVTGISITAGNYRWSWIRQFPGNKLEWIGYIYYSGTIAYNPSLTSRTAITRDSSKNQFFLEMNSLTAEDTATYYCARDRGWLLLDYWGQGTTLTVSS
# VL: DVLMTQTPLSLPVSLGDQASISCRSSQTIVHSNGNTYLEWYLQKPGQSPKLLIYKVSSRFSGVPDRFSGSGSGTDFTLKISRVEAEDLGVYYCFQGSHFPYTFGGGTKLEIKR
# B3: 16F6 human IgG1 chimeric mAb (antibody, V domains shown)
# VH: EVQLVESGGGLVTPGGSLKLSCAASGFAFNYYDMFWVRQNTEKRLEWVAYINSGGGNTYYPDTVKGRFTISRDNAKKTLFLQMSSLRSEDTAMYYCARQLYGNSFFDYWGQGTSLTV
# VL: DIVMTQSHKFMSTSVGDRVTITCKASQDVTTAVAWYQQKPGHSPKLLIYWASTRHTGVPDRFTGSGSGTDFTLTLNSVQAEDLALYYCQQHYSTPLTFGAGTKLEL
# B4: X10B1 human IgG1 chimeric mAb (antibody, V domains shown)
# VH: EVQLLESGPSLVKPSETLTLTCAVSGASISGDYLNWIRQPPGKGLEWIGGIFGSGGSTDYSPSFKSRVTISTDTSKNQFSLKLTSMTTADTAVYFCATALRGARFDAFDFWGQGRRV
# VL: DIELTQSPATLSLSPGERATLSCRASQSVSTYLAWYQKKPGQAPRLLFYGASNRATGIPDRFSGRRSGTDFTLTISSLEPEDVGVYYCQQYNKWNSFGQGTKVEIK
# B5: X10F3 human IgG1 chimeric mAb (antibody, V domains shown)
# VH: QVQLEQSGAEVKKPGTSVKVSCKASGFFTFGSDAISWVRQAPGQGLEWMGVIIPVVGARTYAEKFQGRITITADTSTSTVFMDLSSLRSDDTAVYYCAREGARAATGHYKSMDIWGRGRTLV
# VL: ELQMTQSPSSLSASVGDRVTITCRASQDIGPFLNWYQHKPGKPPKLLIYDVSNLQDGVPSTFSGSGSGTDFTLTISNLQPEDFATYYCLHYANYPRTFGPGTKVEIK
# B6: X10B6 human IgG1 chimeric mAb (antibody, V domains shown)
# VH: B5 VH
# VL: ELLMTQSPSSLSASVGDRVTITCRASQGISTYLSWFQQKPGKPPKLLIYLTSSLEDGVPSRFSGAGSGTEFTLTISNLQPEDFASYYCLQYQSYPRTFGPGTKVEIK
# Biological target: T1, recombinant EBOV GP
# Assay: ELISA on plates coated with recombinant EBOV GP
row,Binder,binding result
1,B1,no binding
2,B2,no binding
3,B3,no binding
4,B4,no binding
5,B5,no binding
6,B6,no binding
